# Results as given in paper PMC12412624, “Engineered Cas12j‐8 is a Versatile Platform for Multiplexed Genome Modulation in Mammalian Cells”.
# Substitutions are numbered along the chain they refer to.
# Columns and labels:
# [1] = tested on: T1, dCas12j-8 D403R D403R;D369A;E567A;D658A (bacteriophage (metagenome)); details: HEK293T cells; panel 1c (compare within a panel only); scale: mean GFP / mean GFP of wild type, printed, no background subtraction
# T1 sequence: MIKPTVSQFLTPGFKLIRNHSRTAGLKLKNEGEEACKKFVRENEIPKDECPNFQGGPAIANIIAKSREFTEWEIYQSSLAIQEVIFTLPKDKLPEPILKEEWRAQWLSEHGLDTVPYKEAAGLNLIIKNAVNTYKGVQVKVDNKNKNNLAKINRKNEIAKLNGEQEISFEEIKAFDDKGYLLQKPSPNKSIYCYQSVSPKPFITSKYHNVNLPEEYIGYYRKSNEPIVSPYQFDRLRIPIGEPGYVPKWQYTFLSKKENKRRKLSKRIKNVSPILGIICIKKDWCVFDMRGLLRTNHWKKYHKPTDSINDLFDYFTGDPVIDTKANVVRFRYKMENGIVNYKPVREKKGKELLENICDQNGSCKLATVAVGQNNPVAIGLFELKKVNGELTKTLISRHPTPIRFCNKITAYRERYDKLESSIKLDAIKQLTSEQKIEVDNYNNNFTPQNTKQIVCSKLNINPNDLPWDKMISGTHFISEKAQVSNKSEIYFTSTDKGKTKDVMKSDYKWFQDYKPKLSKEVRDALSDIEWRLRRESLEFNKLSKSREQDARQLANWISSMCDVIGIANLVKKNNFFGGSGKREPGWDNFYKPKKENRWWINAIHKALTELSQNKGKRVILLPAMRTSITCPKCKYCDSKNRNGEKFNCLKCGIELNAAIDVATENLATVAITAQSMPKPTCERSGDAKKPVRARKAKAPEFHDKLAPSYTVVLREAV
# [2] = tested on: T2, dCas12j-8 E258R+D313R+E547R E258R;D313R;E547R;D369A;E567A;D658A (bacteriophage (metagenome)); details: HEK293T cells; panel 1e (compare within a panel only); scale: mean GFP / mean GFP of wild type, printed, no background subtraction
# T2 sequence: T1 sequence with E258R, D313R, R403D, E547R
# [3] = tested on: T3, dCas12j-8 E547R E547R;D369A;E567A;D658A (bacteriophage (metagenome)); details: HEK293T cells; panel 1c (compare within a panel only); scale: mean GFP / mean GFP of wild type, printed, no background subtraction
# T3 sequence: T1 sequence with R403D, E547R
# [4] = tested on: T4, dCas12j-8 WT D369A;E567A;D658A (bacteriophage (metagenome)); details: HEK293T cells; panel 1c (compare within a panel only); scale: mean GFP / mean GFP of wild type, printed, no background subtraction
# T4 sequence: T1 sequence with R403D
sequence,measurement,setting,value
CUUUCAAGACUAAUAGAUUGCUCCUUACGAGGAGACACUCCCUAUCAGUGAUAGAG / TTNACTCCCTATCAGTGATAGAG / CTCTATCACTGATAGGGAGTNAA [TetO],binding signal,[1],0.365
same,binding signal,[2],3.99
same,binding signal,[3],1.22
same,binding signal,[4],1
